Results reported in US10369195B2, “Methods and compositions for preventing and treating damage to the heart” (MandalMed, Inc., priority 2016, dated 2019).
Entries after “also recorded” stand apart in the source; their conditions may differ.

Columns and labels:
[1] = system: rat ischemia-reperfusion model of MI; assay: Intraventricular (LV) pressure / hemodynamic measurements after ischemia-reperfusion MI; assay type: in vivo; details: for LVEDP, benefit relative to PBS / LVSP, benefit relative to PBS / mean ABP, benefit relative to PBS: 8 weeks post-MI, Gal-3C 600 μg/day days 4-10, losartan 8 mg/kg/day in drinking water 56 days
Protocol: (§1) Pre-filled and primed mini-osmotic pumps were implanted a few minutes before surgical induction of MI and Gal-3C treatment continued for 7 days (denoted as “early window”) as in the pilot study described above. The effect of treatment on cardiac function was evaluated by serial echocardiography on day 0 pre-MI, 2 and 28 days post-MI, and LV pressure measurement at 28 days. For the early window, groups consisted of sham surgery with PBS, sham with 600 μg/day Gal-3C, MI with PBS, MI with 200 μg/day Gal-3C, and MI with 600 μg/day Gal-3C.
Serial echocardiography was performed at 2, 28, and 56 days (8 weeks) post-MI and terminal intraventricular pressure catheter measurements were obtained. The effect on cardiac function from losartan was compared to the effect of Gal-3C that included data from the 12 animals in the Gal-3C and the 12 animals in the vehicle-only group that were presented in FIG. 9 and FIG. 10. […] The results described herein indicate that treatment with Gal-3C post-MI would be more beneficial on recovery and preservation of heart function compared to treatment with losartan or another ARB alone.

[2] = system: rat ischemia-reperfusion model of MI; assay: Serial echocardiography (ejection fraction, ESV, EDV) after ischemia-reperfusion MI; assay type: in vivo; details: for EF, benefit relative to PBS: out to 8 weeks post-MI, Gal-3C 600 μg/day days 4-10, losartan 8 mg/kg/day in drinking water 56 days
Protocol: Animal experiments to test the therapeutic potential of Gal-3C in the preservation of post-MI cardiac function were performed using surgical induction of MI in rodents and functional evaluation of treatment as previously described (61-66). To most accurately model cardiac damage experienced by MI patients, a well-established ischemia-reperfusion procedure was used in which the left anterior descending coronary artery (LAD) of rats was occluded for 25 min followed by restoration of blood flow (67). This standard MI model is more clinically relevant than permanent LAD ligation models because the reperfusion experienced after post-MI angioplasty not only limits the size of the infarct, but paradoxically introduces free radical damage, and is well validated as a model for post-MI heart failure experimental therapies (68).
Experiments were performed according to the UCSF guidelines for rodent survival surgery and the Guide for the Care and Use of Laboratory Animals of the US National Institutes of Health. Male Sprague-Dawley rats (age 10-12 weeks) were anesthetized with isoflurane (2%), received analgesics (buprenorphine (0.1 mg/kg), subcutaneous injection) pre- and post-operation, and underwent ischemia-reperfusion MI involving temporary (25 minutes) occlusion of the left anterior descending coronary artery (LAD) to produce regional moderate myocardial ischemia.
Briefly, rats were ventilated to a small animal volume-controlled ventilator (Harvard Rodent Ventilator, Model 683, South Natick, Mass.), and the heart was exposed via thoracotomy. Occlusion proceeds with a 7-0 nonabsorbable surgical suture passed under the LAD 2-3 mm from tip of the normally positioned left auricle and tied around a 1-mm section of PE-50 tubing, tightening with an artery clamp to temporarily occlude the LAD. After occlusion for 25 minutes, reperfusion was allowed to the formerly ischemic bed. The chest was then closed with removal of excess fluid and air from the chest cavity. All animals were monitored post-operation until they became ambulatory. The mortality during MI procedure was 12%.
The highest dose, 600 μg/rat/day, and the lowest dose, 200 μg/rat/day, were chosen for continued study, representing approximately 2- and 5.5-fold higher doses based on body surface area of rats than was used in the multiple myeloma study of Gal-3C in mice (70). Groups of rats (n=10) were treated with low (200 μg/day) and high (600 μg/day doses of Gal-3C or with PBS-lactose (vehicle control) administered over 0-6 days post-MI (“early window”; primed pumps were implanted several minutes before the MI procedure on day 0). These groups were designed to be sufficiently powered to detect potentially statistically significant improvement from Gal-3C treatment.
as §1
In a subsequent experiment, the high dose Gal-3C and the PBS control were administered by Alzet pump over a delayed delivery window of from 4 days until 10 days post-MI (denoted as “delayed window”) to rats that had been subjected to the same ischemia-reperfusion procedure as described in Example 2 above. Delayed treatment might better enable fibrotic repair of the infarct while preventing wall rupture. […]

[3] = system: xenograft model of human multiple myeloma; details: mice; 30 μg/day by ALZET mini-osmotic pumps; cited from earlier work
[4] = system: rat ischemia-reperfusion model of MI; assay: Interstitial (non-scar) border zone fibrosis from Sirius red-stained heart sections; assay type: in vivo; details: delayed window, 600 μg/day
Description: (§2) After rats in the delayed treatment study were euthanized, hearts were harvested and sectioned for Masson's trichrome and Sirius red staining with quantitative image analysis to assess remodeling. Rather than using an optimized approach for infarct size measurement in permanent ligation rat models (64), it was confirmed that in the ischemia-reperfusion MI model, a volumetric infarct sizing approach (i.e., % area in the tissue sections that was scarred) would be more accurate. Using this approach for analysis of Masson's trichrome staining, it was shown that the infarct size was considerably (>2-fold) reduced in Gal-3C-treated (600 μg/day) rats, a difference that achieved significance with Gal-3C treatment in the delayed window (FIG. 8A).
Quantitative histology of Sirius red staining for interstitial fibrosis was performed on tissue sections with the most scar from each heart as described above in Example 3 using ImageJ.

[5] = system: rat ischemia-reperfusion model of MI; assay: Infarct size from Masson's trichrome-stained heart sections (volumetric, % area scarred); assay type: in vivo; details: 600 μg/day
Description: as §2
As described in Example 3 above, rats were euthanized at 8 weeks post-MI, hearts were harvested and sectioned for Masson's trichrome and Sirius red staining with quantitative image analysis using a volumetric infarct sizing approach (i.e., % area in the tissue sections that was scarred) for analysis of Masson's trichrome staining to calculate the size of the primary infarct.

[6] = system: rat ischemia-reperfusion model of MI; assay: Pilot dose-finding study: hydroxyproline assay of collagen in the left ventricle after ischemia-reperfusion MI; assay type: in vivo; details: 100, 200, 400, 600 μg/day by osmotic pump from day 0 for 7 days; vs vehicle; n=2-3
Protocol: Animal experiments to test the therapeutic potential of Gal-3C in the preservation of post-MI cardiac function were performed using surgical induction of MI in rodents and functional evaluation of treatment as previously described (61-66). To most accurately model cardiac damage experienced by MI patients, a well-established ischemia-reperfusion procedure was used in which the left anterior descending coronary artery (LAD) of rats was occluded for 25 min followed by restoration of blood flow (67). […]
Briefly, rats were ventilated to a small animal volume-controlled ventilator (Harvard Rodent Ventilator, Model 683, South Natick, Mass.), and the heart was exposed via thoracotomy. […] All animals were monitored post-operation until they became ambulatory. […]
A pilot dose-finding study was performed to determine Gal-3C levels reducing fibrosis, with collagen levels in heart tissue extracts as surrogate endpoints. […] It was determined that an equivalent to the mouse dose for use in rats of 250-300 g/body weight based on m^2 of average body surface area of the two species as approximately 105 μg/day. […]

[7] = system: Primary human cardiac fibroblasts; assay: TGFβ1-induced differentiation of primary cardiac fibroblasts to myofibroblasts (immunoblots of SMA and tensin 1); assay type: cell-based
Protocol: Galectin-3 was purified on lactosyl-sepharose from recombinant E. coli pelleted from 40 L of culture, collagenase digested, and then Gal-3C was isolated on lactosyl sepharose as previously described (41). Primary human cardiac fibroblasts (Cell Applications, San Diego, Calif.) were purchased and cultured as per the vendor's recommendations. 200,000 cells at passage 2-3 were cultured in 6-well plates until confluent, starved for 48 h and then induced to differentiate to myofibroblasts by treatment with […] TGFβ1 for 48-72 h. Varying concentrations of Gal-3C were also incubated with the cells. The cells were harvested, lysates prepared, and total protein quantified with a BCA assay (Pierce/Thermo). A total of […] protein was analyzed per condition by immunoblots using primary Abs against smooth muscle actin (SMA) and tensin 1 (Sigma-Aldrich).

[8] = Gal-3C 600 μg/day days 4-10 vs losartan 8 mg/kg/day 56 days, 15/group
[9] = delayed window, 600 μg/day, 8 weeks, vs controls, n=12/group
[10] = delayed window (4-10 days post-MI), 600 μg/day, 28 days post-MI, vs vehicle
[11] = delayed window Gal-3C, 8 weeks (day 56) post-MI, expanded groups 15/group (FIG. 12)
[12] = delayed window, 600 μg/day, 8 weeks (day 56) post-MI, vs vehicle, n=12/group
[13] = early window (0-6 days post-MI), 200 and 600 μg/day, 28 days post-MI, vs PBS
[14] = TGFβ1 5 or 15 mg/ml for 48-72 h, varying concentrations of Gal-3C

Molecule: CCCCc1nc(Cl)c(CO)n1Cc1ccc(-c2ccccc2-c2nn[nH]n2)cc1 [losartan, reference compound]
- LVEDP, benefit relative to PBS ([1]; 15/group): no significant benefit
- LVSP, benefit relative to PBS ([1]; 15/group): no significant benefit
- mean ABP, benefit relative to PBS ([1]; 15/group): no significant benefit
- EF, benefit relative to PBS ([2]; 15/group): no significant benefit

B1: Gal-3C: N-terminally truncated form of full length galectin-3, lacking the amino-terminal domain but retaining carbohydrate binding ability; 143 carboxy-terminal residues, SEQ ID NO: 3 (protein)
chain: GAPAGPLIVPYNLPLPGGVVPRMLITILGTVKPNANRIALDFQRGNDVAFHFNPRFNENNRRVIVCNTKLDNNWGREERQSVFPFESGKPFKIQVLVEPDHFKVAVNDAHLLQYNHRVKKLNEISKLGISGDIDITSASYTMI
- efficacy in xenograft model of human multiple myeloma [3]: good efficacy
- reduction of interstitial fibrosis relative to vehicle-only controls ([4]; 8 weeks post-MI, n=12/group): roughly 50%
- interstitial fibrosis (Sirius red), mean +/- SD ([4]; 8 weeks post-MI, n=12/group, P=0.0003 vs PBS-only): 2.4+/−1.3%
- reduction of interstitial fibrosis vs vehicle-only controls ([4]; 28 days post-MI): ~65%
- reduction of infarct size ([5]; 28 days post-MI, significant in the delayed window): > 2 fold
- infarct size vs PBS group ([5]; delayed window, 8 weeks post-MI): significantly smaller
- LVEDP, benefit relative to PBS ([1]; 15/group): statistically significant benefit
- LVSP, benefit relative to PBS ([1]; 15/group): statistically significant benefit
- mean ABP, benefit relative to PBS ([1]; 15/group): statistically significant benefit
- LVEDP, benefit relative to losartan [1, 8]: statistically significant benefit
- LVSP, benefit relative to losartan [1, 8]: statistically significant benefit
- dP/dt max and dP/dt min ([1]; delayed window Gal-3C, 8 weeks, expanded groups 15/group (FIG. 13)): did not reach significance
- LVEDP [1, 9]: reached significance
- LVSP [1, 9]: reached significance
- dP/dt max [1, 9]: did not reach significance
- dP/dt min [1, 9]: did not reach significance
- mean ABP [1, 9]: reached significance
- all five hemodynamic parameters (mean ABP, LVSP, LVEDP, dP/dt max, dP/dt min) ([1]; delayed window, 600 μg/day, 28 days, vs vehicle): statistically significant improved
- intraventricular pressure measurement (mean ABP, LVSP, LVEDP, dP/dt max, dP/dt min) ([1]; early window, 200 and 600 μg/day, 28 days, vs PBS): did not reach statistical significance
- hemodynamic parameters (mean ABP, dp/dt max and min), 600 μg/day compared to 200 μg/day ([1]; early window, 28 days): Trends to greater improvement
- EF, benefit relative to losartan [2, 8]: statistically significant benefit
- ESV, benefit relative to losartan [2, 8]: statistically significant benefit
- ESV [2, 10]: significant benefit; also recorded: statistically significant improvements
- LV EDV [2, 10]: no benefit
- LV ejection fraction [2, 10]: significant benefit; also recorded: statistically significant improvements
- EDV [2, 11]: beneficial effect
- ESV [2, 11]: beneficial effect
- ejection fraction at 8 weeks compared to 4 weeks in treated animals ([2]; delayed window, 600 μg/day): trend but not a statistically significant increase
- EDV [2, 12]: significant benefit
- ESV [2, 12]: beneficial effect
- ejection fraction [2, 12]: beneficial effect
- LV end diastolic volume (EDV) [2, 13]: no benefit
- end systolic volume (ESV) [2, 13]: profound benefit
- left ventricular ejection fraction [2, 13]: profound benefit
- cardiac function by echocardiography (ejection fraction, ESV, EDV) ([2]; early window treatment, 2 days post-MI): no benefit observed
- EF, benefit relative to PBS ([2]; 15/group): statistically significant benefit
- reduction of collagen levels in the LV (hydroxyproline assay) [6]: 20-35%
- differentiation to myofibroblasts induced by TGF1β (decreased expression of tensin-1 and SMA) ([7]; Gal-3C 4-20 μg/ml, TGF1β 15 μg/ml): inhibited the differentiation to myofibroblasts
- expression of SMA (smooth muscle actin), immunoblot [7, 14]: inhibited expression
- expression of tensin 1, immunoblot [7, 14]: inhibited expression
